For this assay, the target named is T1, FGFR1c and the cofactor β-Klotho (Homo sapiens, UniProt P11362+Q86Z14).
T1 construct: host or cells: iLite FGF21 assay ready cells (genetically engineered reporter gene cell line)
Kind of assay: dual-luciferase reporter gene assay in iLite FGF21 assay ready cells. It is filed as cell-based. The conditions noted are these: Example 6, four-parameter fitting. The source says: iLite FGF21 assay ready cells (purchased from SAVR) is a genetically engineered reporter gene cell line that responds to signals downstream to FGF21 agonism through the expression of firefly luciferase. The receptor FGFR1c and the cofactor β-Klotho were co-overexpressed on the surface of iLite FGF21 assay ready cells and have undergone genetic optimization to enhance sensitivity, such that FGF21 will cause an increase in luciferase expression in a dose-response manner. The luciferase activity detection kit was purchased from Promega (catalog number #E2980).
iLite FGF21 assay ready cells were cultured adherently in basal medium (DMEM Gluta Max, purchased from Gibco) containing 10% fetal bovine serum (FBS, purchased from Gibco) and 1% penicillin/streptomycin (purchased from Gibco). For the activity determination experiment, […] cells per well and test samples such as FGF21 mutant proteins and FGF21 conjugate molecules modified with albumin-binding agent were added to all-white 96-well culture plates (purchased from Corning), and the chemiluminescence values were detected in a microplate reader according to the instructions of the luciferase activity detection kit. Finally, the half-maximal effective concentration (EC50) values of the tested samples were obtained by means of four-parameter fitting.
In general terms: A reporter such as luciferase makes a cellular process visible.

T1 sequence (P11362 22-822): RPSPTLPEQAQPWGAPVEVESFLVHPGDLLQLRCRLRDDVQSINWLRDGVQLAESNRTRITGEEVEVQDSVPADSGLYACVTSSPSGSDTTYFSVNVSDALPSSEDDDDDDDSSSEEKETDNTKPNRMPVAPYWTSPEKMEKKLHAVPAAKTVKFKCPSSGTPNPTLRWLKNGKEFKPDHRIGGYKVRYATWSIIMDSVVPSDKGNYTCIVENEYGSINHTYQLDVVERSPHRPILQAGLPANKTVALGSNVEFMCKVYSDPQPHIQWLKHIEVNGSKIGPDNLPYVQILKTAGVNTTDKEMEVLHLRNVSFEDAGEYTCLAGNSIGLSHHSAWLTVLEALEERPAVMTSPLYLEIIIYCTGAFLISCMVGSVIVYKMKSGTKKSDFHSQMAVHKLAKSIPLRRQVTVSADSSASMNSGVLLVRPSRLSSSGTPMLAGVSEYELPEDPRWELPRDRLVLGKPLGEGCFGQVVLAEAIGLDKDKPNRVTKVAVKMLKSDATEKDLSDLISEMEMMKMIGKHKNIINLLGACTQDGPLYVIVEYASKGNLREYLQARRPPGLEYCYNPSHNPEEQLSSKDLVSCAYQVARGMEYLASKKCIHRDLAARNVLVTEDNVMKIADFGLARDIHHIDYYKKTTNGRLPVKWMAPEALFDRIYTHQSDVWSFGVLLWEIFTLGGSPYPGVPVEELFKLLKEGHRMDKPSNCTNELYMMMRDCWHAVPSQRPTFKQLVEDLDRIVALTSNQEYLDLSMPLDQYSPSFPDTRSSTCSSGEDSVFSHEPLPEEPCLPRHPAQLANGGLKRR
T1 sequence (Q86Z14 whole entry): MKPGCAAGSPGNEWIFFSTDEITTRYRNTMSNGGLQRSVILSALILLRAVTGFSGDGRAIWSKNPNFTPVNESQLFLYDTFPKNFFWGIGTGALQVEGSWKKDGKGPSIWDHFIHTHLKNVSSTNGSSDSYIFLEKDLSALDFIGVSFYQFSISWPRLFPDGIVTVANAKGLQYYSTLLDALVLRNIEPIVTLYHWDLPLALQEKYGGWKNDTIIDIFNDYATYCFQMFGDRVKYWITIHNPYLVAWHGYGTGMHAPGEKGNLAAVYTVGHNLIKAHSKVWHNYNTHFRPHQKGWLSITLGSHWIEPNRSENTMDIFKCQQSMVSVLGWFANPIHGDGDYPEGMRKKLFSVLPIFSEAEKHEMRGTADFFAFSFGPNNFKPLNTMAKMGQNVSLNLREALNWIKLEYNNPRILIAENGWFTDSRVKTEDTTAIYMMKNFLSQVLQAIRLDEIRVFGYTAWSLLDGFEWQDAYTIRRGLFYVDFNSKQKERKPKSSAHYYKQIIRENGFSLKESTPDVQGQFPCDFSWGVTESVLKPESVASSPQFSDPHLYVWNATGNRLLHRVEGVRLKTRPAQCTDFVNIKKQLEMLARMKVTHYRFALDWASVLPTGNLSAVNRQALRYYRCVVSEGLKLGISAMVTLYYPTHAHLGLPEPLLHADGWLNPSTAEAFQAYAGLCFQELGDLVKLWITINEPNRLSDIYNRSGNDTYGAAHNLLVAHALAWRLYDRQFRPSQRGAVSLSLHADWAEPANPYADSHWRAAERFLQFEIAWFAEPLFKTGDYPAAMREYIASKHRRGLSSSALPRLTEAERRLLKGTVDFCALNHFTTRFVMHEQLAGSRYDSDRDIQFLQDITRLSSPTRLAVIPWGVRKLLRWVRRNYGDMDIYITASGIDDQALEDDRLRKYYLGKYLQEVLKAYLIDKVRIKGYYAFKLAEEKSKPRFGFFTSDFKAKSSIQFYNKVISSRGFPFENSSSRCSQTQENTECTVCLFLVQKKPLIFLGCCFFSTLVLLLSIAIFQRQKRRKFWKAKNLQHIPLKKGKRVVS

B1: Compound 5.4: FGF21K122C mutant (SEQ NO: 8) modified by the albumin-binding agent of Example 2.1 (conjugate)
chain: HPIPDSSPLLQFGGQVRQRYLYTDDAQQTEAHLEIREDGTVGGAADQSPESLLQLKALKPGVIQILGVKTSRFLCQRPDGALYGSLHFDPEACSFRERLLEDGYNVYQSEAHGLPLHLPGNCSPHRDPAPRGPARFLPLPGLPPAPPEPPGILAPQPPDVGSSDPLSMVGGSQGRSPSYES
modifications: albumin-binding agent of Example 2.1
The term EC50 denotes the concentration giving half of the maximal effect. A higher EC50 goes with lower potency in that assay. Take B1: it took 0.99 nM to reach a half-maximal effect (EC50).

B2: Compound 5.8: FGF21K122C mutant (SEQ NO: 8) modified by the albumin-binding agent of Example 2.2 (conjugate)
chain: HPIPDSSPLLQFGGQVRQRYLYTDDAQQTEAHLEIREDGTVGGAADQSPESLLQLKALKPGVIQILGVKTSRFLCQRPDGALYGSLHFDPEACSFRERLLEDGYNVYQSEAHGLPLHLPGNCSPHRDPAPRGPARFLPLPGLPPAPPEPPGILAPQPPDVGSSDPLSMVGGSQGRSPSYES
modifications: albumin-binding agent conjugated
As for B2, the EC50 is 1.13 nM.

B3: Compound 5.5: FGF21H125C mutant (SEQ NO: 9) modified by the albumin-binding agent of Example 2.1 (conjugate)
chain: HPIPDSSPLLQFGGQVRQRYLYTDDAQQTEAHLEIREDGTVGGAADQSPESLLQLKALKPGVIQILGVKTSRFLCQRPDGALYGSLHFDPEACSFRERLLEDGYNVYQSEAHGLPLHLPGNKSPCRDPAPRGPARFLPLPGLPPAPPEPPGILAPQPPDVGSSDPLSMVGGSQGRSPSYES
modifications: albumin-binding agent of Example 2.1
In the case of B3, the EC50 was found to be 0.52 nM.

B4: Compound 5.10: FGF21D46C mutant (SEQ NO: 7) modified by the albumin-binding agent of Example 2.3 (conjugate)
chain: HPIPDSSPLLQFGGQVRQRYLYTDDAQQTEAHLEIREDGTVGGAACQSPESLLQLKALKPGVIQILGVKTSRFLCQRPDGALYGSLHFDPEACSFRERLLEDGYNVYQSEAHGLPLHLPGNKSPHRDPAPRGPARFLPLPGLPPAPPEPPGILAPQPPDVGSSDPLSMVGGSQGRSPSYES
modifications: albumin-binding agent of Example 2.3
Regarding B4, a half-maximal effect (EC50) was put at 2.69 nM.

B5: Compound 5.9: FGF21H125C mutant (SEQ NO: 9) modified by the albumin-binding agent of Example 2.2 (conjugate)
chain: HPIPDSSPLLQFGGQVRQRYLYTDDAQQTEAHLEIREDGTVGGAADQSPESLLQLKALKPGVIQILGVKTSRFLCQRPDGALYGSLHFDPEACSFRERLLEDGYNVYQSEAHGLPLHLPGNKSPCRDPAPRGPARFLPLPGLPPAPPEPPGILAPQPPDVGSSDPLSMVGGSQGRSPSYES
modifications: albumin-binding agent conjugated
Molecule B5 yielded an EC50 of 1.18 nM. Against the preceding molecule, the EC50 is about 2.3-fold lower.

B6: Compound 5.6: FGF21D38C mutant (SEQ NO: 6) modified by the albumin-binding agent of Example 2.2 (conjugate)
chain: HPIPDSSPLLQFGGQVRQRYLYTDDAQQTEAHLEIRECGTVGGAADQSPESLLQLKALKPGVIQILGVKTSRFLCQRPDGALYGSLHFDPEACSFRERLLEDGYNVYQSEAHGLPLHLPGNKSPHRDPAPRGPARFLPLPGLPPAPPEPPGILAPQPPDVGSSDPLSMVGGSQGRSPSYES
modifications: albumin-binding agent conjugated
In the case of B6, the EC50 turned out to be 2.06 nM.

The record behind these values is patent EP4700044A1, “PROTEIN ANALOGUE AND USE THEREOF” (Shanghai Duomirui Biotechnology., Ltd., priority 2023, dated 2024).
